The target in the data set is streptavidin (UniProt P22629 25-183). The data set can be described thus: aptamer microarray.
Sequence of streptavidin (P22629 25-183): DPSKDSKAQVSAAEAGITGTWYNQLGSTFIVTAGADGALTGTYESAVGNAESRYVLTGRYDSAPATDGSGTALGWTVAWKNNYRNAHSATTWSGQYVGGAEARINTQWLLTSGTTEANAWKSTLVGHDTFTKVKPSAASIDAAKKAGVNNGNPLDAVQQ

B1: St-2-1_T11 (structured_DNA)
DNA: ATTGACCGCTGTGTGACGCAACACTCAATTTTTTTTTTTT
As to B1, the binding result was “binds”.

The values are drawn from paper PMC3686109.
